From patent US20210139581A1 (Alector, published 2021)

Tests used:
[1] = biological target: T1, human CD33 on primary human monocyte-derived dendritic cells (human, UniProt P20138 18-364); test: cell-based or functional assay
human CD33 [2] = biological target: T2, human CD33 (human, UniProt P20138 18-259, limits assumed); test: BLI (ForteBio), Fab 100 nM on immobilized CD33
T2 construct: Human CD33 immobilized on the BLI sensor tip or the BIAcore C1 chip; also called Siglec-3
Procedure: (§1) The affinities (KD) of the humanized antibodies for human CD33 were measured for each antibody by BioLayer Interferometry in a ForteBio assay according to standard techniques (Estep et al. (2013) MAbs 5(2): 270-8). […] The assay was carried out at room temperature.
The affinity parameters of two of the antibodies, 64.1.2 and 64.1.8, were measured in a separate experiment by BIAcore, where they were directly compared to the parental antibody, AB-64.1, the parental humanized antibody, AB-H64, and the Chimeric Ab.

[3] = biological target: T1, human CD33 on primary human …; test: cell-based or functional assay; remark: listed apart in the source
human CD33 [4] = biological target: T2, human CD33; test: BLI (ForteBio), Fab 100 nM on immobilized CD33; remark: listed apart in the source
Procedure: as §1
The affinities of AB-H64 and its variants (Table 5) for human CD33 were measured by Fortebio assay according to the method described in Example 1 above.

[5] = biological target: T1, human CD33 on primary human …; test: cell-based or functional assay; remark: listed apart in the source
human CD33 [6] = biological target: T2, human CD33; test: SPR (BIAcore), Fab over CD33 on C1 chip
Procedure: The affinity parameters for 10 of the 88 humanized antibodies (AB-H1, AB-H3, AB-H6, AB-H11, AB-H22, AB-H24, AB-H26, AB-H63, AB-H64, and AB-H71) were measured in a separate experiment by a more sensitive technique, surface plasmon resonance (BIAcore), and compared to Chimeric Ab and Chimeric Ab #2. BIAcore measurements were performed as follows: human CD33 was immobilized on the surface of a C1 chip, and Fabs were injected for 300 s to monitor association, followed by a 900 s flow in running buffer to monitor dissociation. The Fabs were measured at 5 concentrations: a high concentration of 27 nM and 3-fold serial dilutions.
In a separate experiment, as determined by the more sensitive BIAcore technique, affinity parameters of affinity matured antibodies derived from the humanized antibody AB-H64 were measured and were directly compared to that of the Chimeric Ab, according to the method described in Example 1 above.

T2 sequence (P20138 18-259 limits assumed): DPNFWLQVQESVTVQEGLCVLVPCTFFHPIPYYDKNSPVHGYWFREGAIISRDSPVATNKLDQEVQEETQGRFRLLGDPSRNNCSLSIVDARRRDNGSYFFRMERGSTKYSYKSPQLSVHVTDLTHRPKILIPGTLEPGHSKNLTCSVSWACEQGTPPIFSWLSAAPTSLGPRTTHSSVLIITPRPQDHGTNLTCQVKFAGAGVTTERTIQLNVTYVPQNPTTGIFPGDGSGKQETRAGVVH
T1 sequence (P20138 18-364): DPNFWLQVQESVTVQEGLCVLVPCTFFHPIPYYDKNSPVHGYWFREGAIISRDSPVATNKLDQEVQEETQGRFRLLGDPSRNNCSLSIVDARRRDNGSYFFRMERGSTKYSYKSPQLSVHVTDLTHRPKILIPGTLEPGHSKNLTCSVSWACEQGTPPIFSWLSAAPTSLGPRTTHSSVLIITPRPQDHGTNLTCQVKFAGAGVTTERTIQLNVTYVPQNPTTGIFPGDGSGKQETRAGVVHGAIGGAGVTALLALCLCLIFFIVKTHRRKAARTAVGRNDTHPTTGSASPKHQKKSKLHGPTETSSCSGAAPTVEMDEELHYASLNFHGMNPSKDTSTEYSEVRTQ

Receptor downregulation (% remaining at 0.16 µg/mL antibody) [1] [%] | Kd (human CD33 [2]) [nM] | Maximal Downregulation (% CD33 remaining) [3] [%] | Receptor downregulation (pM, EC50) [3] [pM] | Binder | other results
35.9 | 0.391 |  |  | AB-64.1.7 (antibody, V domains shown, Variant of AB-64.1) VH: QVQLVQSGAEVKKPGASVKISCKASGYTFTDYNLHWVRQAPGQGLEWIGFIYPSNGITGYAQKFQGRATLTVDNPTSTAYMELSSLRSEDTAVYYCARSDVDYFDYWGQGTLLTVSS VL: DIVLTQSPDSLAVSLGERATINCRASQSVSTSTYSYMHWYQQKPGQPPKLLIKYASNLESGVPDRFSGSGSGTDFTLTISSLQAEDVAVYYCQHSWEIPLTFGQGTKLEIK | 
 |  | 41.3 | 29.3 | AB-64.1 huIgG1 N297A (antibody, V domains shown) VH: QVQLVQSGAEVKKPGASVKISCKASGYTFTDYNLHWVRQAPGQGLEWIGFIYPSNGITGYAQKFQGRATLTVDNSTSTAYMELSSLRSEDTAVYYCARSDVDYFDYWGQGTLLTVSS VL: DIVLTQSPDSLAVSLGERATINCRASQSVSTSTYSYMHWYQQKPGQPPKLLIKYASNLESGVPDRFSGSGSGTDFTLTISSLQAEDVAVYYCQHSWEIPLTFGQGTKLEIK | 
 |  | 10.9 | 31.9 | AB-64.1 huIgG1 SELF (antibody, V domains shown) VH: QVQLVQSGAEVKKPGASVKISCKASGYTFTDYNLHWVRQAPGQGLEWIGFIYPSNGITGYAQKFQGRATLTVDNSTSTAYMELSSLRSEDTAVYYCARSDVDYFDYWGQGTLLTVSS VL: DIVLTQSPDSLAVSLGERATINCRASQSVSTSTYSYMHWYQQKPGQPPKLLIKYASNLESGVPDRFSGSGSGTDFTLTISSLQAEDVAVYYCQHSWEIPLTFGQGTKLEIK | 
35.9 | 1.45 |  |  | AB-64.1.13 (antibody, V domains shown, Variant of AB-64.1) VH: QVQLVQSGAEVKKPGASVKISCKASGYTFTDYNLHWVRQAPGQGLEWIGFIYPSNVITGYAQKFQGRATLTVDTSTSTAYMELSSLRSEDTAVYYCARSDVDYFDYWGQGTLLTVSS VL: DIVLTQSPDSLAVSLGERATINCRASQSVSTSTYSYMHWYQQKPGQPPKLLIKYASNLESGVPDRFSGSGSGTDFTLTISSLQAEDVAVYYCQHSWEIPLTFGQGTKLEIK | 
38.9 | 0.412 |  |  | AB-64.1.15 (antibody, V domains shown, Variant of AB-64.1) VH: QVQLVQSGAEVKKPGASVKISCKASGYTFTDYNLHWVRQAPGQGLEWIGFIYPSNVITGYAQKFQGRATLTVDNSASTAYMELSSLRSEDTAVYYCARSDVDYFDYWGQGTLLTVSS VL: DIVLTQSPDSLAVSLGERATINCRASQSVSTSTYSYMHWYQQKPGQPPKLLIKYASNLESGVPDRFSGSGSGTDFTLTISSLQAEDVAVYYCQHSWEIPLTFGQGTKLEIK | 
38.4 | 0.743 |  |  | AB-64.1.14 (antibody, V domains shown, Variant of AB-64.1) VH: QVQLVQSGAEVKKPGASVKISCKASGYTFTDYNLHWVRQAPGQGLEWIGFIYPSNVITGYAQKFQGRATLTVDQSTSTAYMELSSLRSEDTAVYYCARSDVDYFDYWGQGTLLTVSS VL: DIVLTQSPDSLAVSLGERATINCRASQSVSTSTYSYMHWYQQKPGQPPKLLIKYASNLESGVPDRFSGSGSGTDFTLTISSLQAEDVAVYYCQHSWEIPLTFGQGTKLEIK | 
38.6 | 1.15 |  |  | AB-64.1.11 (antibody, V domains shown, Variant of AB-64.1) VH: QVQLVQSGAEVKKPGASVKISCKASGYTFTDYNLHWVRQAPGQGLEWIGFIYPSNRITGYAQKFQGRATLTVDQSTSTAYMELSSLRSEDTAVYYCARSDVDYFDYWGQGTLLTVSS VL: DIVLTQSPDSLAVSLGERATINCRASQSVSTSTYSYMHWYQQKPGQPPKLLIKYASNLESGVPDRFSGSGSGTDFTLTISSLQAEDVAVYYCQHSWEIPLTFGQGTKLEIK | 
 |  |  |  | AB-64.3 (antibody, V domains shown) VH: QVQLVQSGAEVKKPGASVKISCKASGYTFTDYNLHWVRQAPGQGLEWIGFIYPSNGITGYAEKFEGRATLTVDNSTSTAYMELSSLRSEDTAVYYCARSFVDYFDYWGQGTLLTVSS VL: DIVLTQSPDSLAVSLGERATINCRASQDVSTSTYSYMHWYQQKPGQPPKLLIKYASYLESGVPDRFSGSGSGTDFTLTISSLQAEDVAVYYCEHSWEIPLTFGQGTKLEIK | Fold affinity improvement over parental Ab (AB-H64) (human CD33 [4]): 6.53 fold; Kd (human CD33 [4]): 0.438 nM; Receptor downregulation (EC50) [5]: 0.0257 nM; Fold Change to AB-H64 (human CD33 [6]): 401 fold; Fold Change to Chimeric Ab (human CD33 [6]): 303 fold; Kd (human CD33 [6]): 0.00537 nM; koff (human CD33 [6]): 2.67e-05 s⁻¹; kon (human CD33 [6]): 4.98e+06 M⁻¹ s⁻¹
38.5 | 0.922 |  |  | AB-64.1.12 (antibody, V domains shown, Variant of AB-64.1) VH: QVQLVQSGAEVKKPGASVKISCKASGYTFTDYNLHWVRQAPGQGLEWIGFIYPSNRITGYAQKFQGRATLTVDNSASTAYMELSSLRSEDTAVYYCARSDVDYFDYWGQGTLLTVSS VL: DIVLTQSPDSLAVSLGERATINCRASQSVSTSTYSYMHWYQQKPGQPPKLLIKYASNLESGVPDRFSGSGSGTDFTLTISSLQAEDVAVYYCQHSWEIPLTFGQGTKLEIK | 
39.8 | 1.45 |  |  | AB-64.1.10 (antibody, V domains shown, Variant of AB-64.1) VH: QVQLVQSGAEVKKPGASVKISCKASGYTFTDYNLHWVRQAPGQGLEWIGFIYPSNRITGYAQKFQGRATLTVDTSTSTAYMELSSLRSEDTAVYYCARSDVDYFDYWGQGTLLTVSS VL: DIVLTQSPDSLAVSLGERATINCRASQSVSTSTYSYMHWYQQKPGQPPKLLIKYASNLESGVPDRFSGSGSGTDFTLTISSLQAEDVAVYYCQHSWEIPLTFGQGTKLEIK | 
37.4 | 1.06 |  |  | AB-64.1.9 (antibody, V domains shown, Variant of AB-64.1) VH: QVQLVQSGAEVKKPGASVKISCKASGYTFTDYNLHWVRQAPGQGLEWIGFIYPSNQITGYAQKFQGRATLTVDNPTSTAYMELSSLRSEDTAVYYCARSDVDYFDYWGQGTLLTVSS VL: DIVLTQSPDSLAVSLGERATINCRASQSVSTSTYSYMHWYQQKPGQPPKLLIKYASNLESGVPDRFSGSGSGTDFTLTISSLQAEDVAVYYCQHSWEIPLTFGQGTKLEIK | 
 |  | 17.5 | 36.2 | AB-64.1 huIgG1 (antibody) heavy: not shown light: DIVLTQSPDSLAVSLGERATINCRASQSVSTSTYSYMHWYQQKPGQPPKLLIKYASNLESGVPDRFSGSGSGTDFTLTISSLQAEDVAVYYCQHSWEIPLTFGQGTKLEIKRTVAAPSVFIFPPSDEQLKSGTASVVCLLNNFYPREAKVQWKVDNALQSGNSQESVTEQDSKDSTYSLSSTLTLSKADYEKHKVYACEVTHQGLSSPVTKSFNRGEC | 
 |  | 39.4 | 57.1 | AB-64.1 huIgG1 LALAPS (antibody) heavy: not shown light: DIVLTQSPDSLAVSLGERATINCRASQSVSTSTYSYMHWYQQKPGQPPKLLIKYASNLESGVPDRFSGSGSGTDFTLTISSLQAEDVAVYYCQHSWEIPLTFGQGTKLEIKRTVAAPSVFIFPPSDEQLKSGTASVVCLLNNFYPREAKVQWKVDNALQSGNSQESVTEQDSKDSTYSLSSTLTLSKADYEKHKVYACEVTHQGLSSPVTKSFNRGEC | 
 |  | 15.1 | 35.6 | AB-64.1 huIgG2 (antibody) heavy: QVQLVQSGAEVKKPGASVKISCKASGYTFTDYNLHWVRQAPGQGLEWIGFIYPSNGITGYAQKFQGRATLTVDNSTSTAYMELSSLRSEDTAVYYCARSDVDYFDYWGQGTLLTVSSASTKGPSVFPLAPCSRSTSESTAALGCLVKDYFPEPVTVSWNSGALTSGVHTFPAVLQSSGLYSLSSVVTVPSSNFGTQTYTCNVDHKPSNTKVDKTVERKCCVECPPCPAPPVAGPSVFLFPPKPKDTLMISRTPEVTCVVVDVSHEDPEVQFNWYVDGVEVHNAKTKPREEQFNSTFRVVSVLTVVHQDWLNGKEYKCKVSNKGLPAPIEKTISKTKGQPREPQVYTLPPSREEMTKNQVSLTCLVKGFYPSDIAVEWESNGQPENNYKTTPPMLDSDGSFFLYSKLTVDKSRWQQGNVFSCSVMHEALHNHYTQKSLSLSPGK light: DIVLTQSPDSLAVSLGERATINCRASQSVSTSTYSYMHWYQQKPGQPPKLLIKYASNLESGVPDRFSGSGSGTDFTLTISSLQAEDVAVYYCQHSWEIPLTFGQGTKLEIKRTVAAPSVFIFPPSDEQLKSGTASVVCLLNNFYPREAKVQWKVDNALQSGNSQESVTEQDSKDSTYSLSSTLTLSKADYEKHKVYACEVTHQGLSSPVTKSFNRGEC | 
